Measurements published in the nanobody polyreactivity screen of Harvey et al. (2022).

Test: yeast display, Sf9 membrane polyspecificity reagent, FACS + sequencing; frameworks hold sequencing errors
Outline: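 Galactose-induced (36–48 hours) yeast carrying a synthetic nanobody display library were exposed to 10% biotinylated, detergent-solubilized Sf9 membrane reagent at 4 °C for 1 hour. FACS followed streptavidin microbead enrichment, using low and high (top ~1%) gates for expression (anti-HA) and reagent binding (streptavidin). Colony PCR, MiSeq 2 × 250 sequencing and CDR-length filtering followed. Labels for polyreactivity reflect the gate of origin.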

Sequence	polyreactivity (PSR sort gate)
QVQLVESGGGLVQAAGSLRLSCAASGRIFYSYAMGWYRQAPGKERELVAASSFSVGSTYYADSVKGRFTISRDNAKNTVYLQMNSLKPEDTAVYYCAASLGFPGYEYWGQGTQVTVSS	low polyreactivity
QVQLVESGGGLVQAAGSLRLSCAASGRTFFPYAMGWYRQAPGKEREFVAAITKTDDSTYYADSVKGRFTISRDNAKNTVYLQMNSLKPEDSAVYYCNAGDTQIRFYYWGQVTQVTVSS	low polyreactivity
QVQLVESGGGLVQAAGSLRLSCAASGRTFVFYAMGWYRQAPGKERELVAAISDGDRTNYADSVKGRFTISRDNAKNTVYLQMNSLKPEDTAVYYCAADREFWWAVVYTYEYYYWGQGTQVTVSS	low polyreactivity
QVQLVESGGGLVQAAGSLRLSCAASGSIAMGWYRQAPGKERELVATISSSGGSTYYADSVKGRFTISRDNAKNTVYLQMNSLKPEDTAVYYCAAGGYTLYHAWGYYWGQGTQVTVSS	low polyreactivity
QVQLVESGGGLVQAAGSLRLSCAASGSTFAANAMGWYRQAPGKERELVAAITWTGGSTYYADSVKGRFTISRDNAKNTVYLQMNSLKPEDTAVYYCARRSYGRYYYRYRAYDYWGQGTQVTVSS	high polyreactivity
QVQLVESGGGLVQAAGSLRLSCAASVNTFFKNAMGWYRQAPGKERELVAAISKGGGSTYYADSVKGRFTISRDNAKNTVYLQMNSLKPEDTAVYYCAADTFGVYASTYDYWGQGTQVTVSS	high polyreactivity
QVQLVESGGGLVQAAGSRRLSCDASGRIFGWYAMGWSRQAPGKERELVAAITNSGGSPYCADSVKGRFTISRDNAKNTVYLERKSLIPEDTAVYYCARSFSFYGKRKYDYWGQGTQVTVSS	high polyreactivity
QVQLVESGGGLVQAEGSLRLSCAASGRTFRPYALGWYRQAPGKERELVAVITSGGRTDYADSVKGRFTISRDNAKNTVYLQMNSLKPEDTAVYYCNAGAVYWGYSRGWYERDYWGQGTQVTVSS	high polyreactivity
QVQLVESGGGLVQAGASLRLCCAASGRILRRYAMGWYRQAPGKEWELVAAITARTGSTYYADSVKGRFTISRDTAKYTVYLQMNSLKPEDTAVYYCNAVNELTGGVIFNYWGQGTQVTVSS	high polyreactivity
QVQLVESGGGLVQAGASLRLSCAASGCTFVVNAMGWYRQAPGKERELVAAITDGSSTNYADSVKGRFTISRDNAKYTVYLQMTRLIRQDTAVYFCAAVPYIDLDDINVEHPQYGYWGQGTQVTVSS	low polyreactivity
QVQLVESGGGLVQAGASLRLSCAASGFIFRHYAMGWYRQAPGKARELVAVINWSGSSTYYADSVKGRFTISRDNAKNTVYLQMNSLKPEDTAVYYCAVRSLRVDKYGYWGQGTQVTVSS	high polyreactivity
QVQLVESGGGLVQAGASLRLSCAASGFTFGTYAMGWYRQAPGKERELVAAITKSGVRTYYADSVKGRFTISRDNAKNTVYLQMNSLKPEDTAVYYCNARGHSSLSTIVDFWGQGTQVTVSS	high polyreactivity
QVQLVESGGGLVQAGASLRLSCAASGFTLYSYAMGWYRQAPGKERELDASISTGGSTYYADSVKGRFTISRDNAKNTVYLQMNSLKPVDTAVYYSAVDGWYYTSWSFYRRYEYWGQGTQVSVSS	high polyreactivity
QVQLVESGGGLVQAGASLRLSCAASGGIFVVYGMGWYRQAPGNERELVAAISWRGGSTYYADSVKGRFTISRDNAKNTVYLQMNSLKPEDTAVYYCAADQYYGGYDYWGQGTQVTVSS	low polyreactivity
QVQLVESGGGLVQAGASLRLSCAASGIIYAYNAMGWYRPAPGKERELVATITDSGGSTSYADSVKGRFTISRDNAKNTVYLQMNSLKPEDTAVYYCAVLPVYWYWRNYVYLSGYDYWGQGTQVTVSS	low polyreactivity
QVQLVESGGGLVQAGASLRLSCAASGLIFYFYAMGWYRQAPGKERELVATIRSSTGSTYYADSVKGRFTISRDNAKNTVYLQMNSLKPEDTAVYYCNAGIKRYEWYQFDYWGQGTQVSVSS	low polyreactivity

Sequence	polyreactivity (PSR sort gate)
QVQLVESGGGLVQAGASLRLSCAASGRIFWHNAMGWYRQAPGKERELVAAMTRGGSTYYADSVKGRFTISRDNAKNTVYLQMNSLKPEDTAVYYCATLGSLRYYWPGYDYWGQGTQVTVSS	low polyreactivity
QVQLVESGGGLVQAGASLRLSCAASGRILKTYAMGSYRQAPGKERELVAAITGRGGRTYYADSVKGRFTISRDNAKNTFYLQMISLKPEDTAVYYCAAYYGPSRSLYYYWGQGSQVTVSS	high polyreactivity
QVQLVESGGGLVQAGASLRLSCAASGRTFLRYAMGWYRQAPGKERELVAAISSRGGSTYYADSVKGRFTISRDNAKNTVYLQMNSLIPEDTAVYYCAARGCRSQVPVRVFRYDFWGQGTQVTVSS	high polyreactivity
QVQLVESGGGLVQAGASLRLSCAASGRTFRYYDMGWSRQEPGKEREFVAAITWRGGSTYFADSVKGRFTISRDNAKNTVFLQMNSLKPEDTAVYYCATDSLRLYGGKRDLYFWGQGTQVTVSS	low polyreactivity
QVQLVESGGGLVQAGASLRLSCAASGRTFYNYAMGWYRQARGKEREFVASMTTSGGSTYYADSVKGRFTISRDNAKNTVYLQMNSLKPEDTAVYYCARRAYRSWTGNSYEYYYWGQGTQVTVSS	high polyreactivity
QVQLVESGGGLVQAGASLRLSCAASGRTSYRYAMGWNRQAPGKERELVAAISFGGGSTYYADSVKGRFPISRDNAKNTVYLQMNSLKPEDTAFYYCATDRVKYRNIYTDTGFDYWGQGTQVTVSS	high polyreactivity
QVQLVESGGGLVQAGASLRLSCAASGSTFARYAMGWYRQAPGKERELVAAISSSGRTYYADSVKGRFTISRDNAKNSVYLQMNSLKPEDTAVYYCNAPVARGEASYYWGQGTQVTVSS	high polyreactivity
QVQLVESGGGLVQAGASLRLSCAASGSTFGGNAMGWSRQAPWKERELVAAINWTGGSTYADSVKGRFTISRDNAKNTVYLQMNRLKPEDTAVYYCAIRATWGSSTQYLQNQEYDYWGQGSQVTVSS	low polyreactivity
QVQLVESGGGLVQAGASLRLSCAASGSTFGYYAMGWNRQAPGKERELVAAISTRGGSTYYADSVKGRFTISRDNAKTTVYLQMNSLKPEDIAVYYCAVLGTPYGLNDYCGQGTQVTVSS	high polyreactivity
QVQLVESGGGLVQAGASLRLSCAASGSTFLQNAMGWYRQAPGKVRELVAAITRSGGSTNYADSVKGRFKISRDNAKNTVYLQKNSLKPEDTAVYYCPAGGRRYDDDYWGQGTQVTVSS	high polyreactivity
QVQLVESGGGLVQAGASLRLSCAASGYTLDNYAMGWYRQAPWKERELVAGITFSGGSTFYADSVKGRFTISRDNAKNTVYLQMNRLKPEDTAVYYCAAEAEFQADHKYGYWGQGTQVTVSS	low polyreactivity
QVQLVESGGGLVQAGASLRLSCADSGRISESNDMGWNRQAPGKQRELVAAISSSGGSTYYADSVMGRFPISRDNAKNTVYLQMNSLKPEDTALYYCNAVYYRTVLKIGVYEYDYWGQGTQVTVSS	low polyreactivity
QVQLVESGGGLVQAGASLRLSCAPSGLIFTYNARGWYRQAPGKERELVAAITYRVSSTYYADSVKGRFTISRDNAKNSVYLQMNSLKPEDTAVYYCAAPRLIRFVTYYSWGLGTQVTVSS	high polyreactivity
QVQLVESGGGLVQAGCSLLLICADSGFIFYGYVMGWYRQAPGKEMEWVAGITSSGTSTYADSVKGRFTISRDNAKNTVFLQMNSLKPEDTAAYYCAALRRQYGARDYDYWGQGTQVTVSA	low polyreactivity
QVQLVESGGGLVQAGCSLLLSCAASGRSFTHNAMGWYRPAHGPERELGAAITSRGRTTYADSVKGRFTISRDNAKNTVYVQMNSLKPEDTAVYYCATSVWFPITSYDYWGQGTQVTVSS	low polyreactivity
